Measurements taken from patent US20190127468A1.
Several values for one entry are separate records, joined by “and”; a condition that tells them apart may be missing. Equal entries are not always repeated. Each block holds one substance with its values, some of them ahead of it.

Experiments:
[1] = target: Control IgG1-Fc (human) [IgG part: P01857]; assay: ELISA on coated target; binder 0 (background)
[2] = target: Control IgG1-Fc (human) [IgG part: P01857]; assay: ELISA on coated target; binder 1000 ng/ml
[3] = target: Control IgG1-Fc (human) [IgG part: P01857]; assay: ELISA on coated target; binder 100 ng/ml
[4] = target: Control IgG1-Fc (human) [IgG part: P01857]; assay: ELISA on coated target; binder 10 ng/ml
[5] = target: CTLA-4Fc mutant M11 (AA103-106, YLGI>fcGm) (human); assay: ELISA, plate-coated CTLA-4Fc protein, biotinylated B7-1 Ig at 100 ng/ml, HRP-streptavidin
Chain of CTLA-4Fc mutant M11 (AA103-106, YLGI>fcGm) (human) (chain, as listed by the source mutant limits assumed): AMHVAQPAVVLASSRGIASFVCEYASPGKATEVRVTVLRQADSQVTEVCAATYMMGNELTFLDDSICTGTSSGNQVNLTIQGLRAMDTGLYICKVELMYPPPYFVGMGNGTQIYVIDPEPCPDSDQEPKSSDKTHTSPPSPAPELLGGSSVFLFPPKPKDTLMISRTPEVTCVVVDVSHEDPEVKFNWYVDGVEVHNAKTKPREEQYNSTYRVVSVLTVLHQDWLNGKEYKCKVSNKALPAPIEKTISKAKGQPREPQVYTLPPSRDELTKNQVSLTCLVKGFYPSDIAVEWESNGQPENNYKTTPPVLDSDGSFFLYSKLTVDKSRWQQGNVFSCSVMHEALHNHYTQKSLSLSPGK

[6] = target: CTLA-4Fc mutant M11 (AA103-106, YLGI>fcGm) (human); assay: ELISA, plate-coated CTLA-4Fc protein, biotinylated B7-1 Ig at 1 ug/ml, HRP-streptavidin
[7] = target: CTLA-4Fc mutant M11 (AA103-106, YLGI>fcGm) (human); assay: ELISA, plate-coated CTLA-4Fc protein, biotinylated B7-1 Ig at 10 ng/ml, HRP-streptavidin
[8] = target: CTLA-4Fc mutant M11 (AA103-106, YLGI>fcGm) (human); assay: ELISA, plate-coated CTLA-4Fc protein, biotinylated B7-1 Ig at 0 (blank), HRP-streptavidin
[9] = target: mouse CTLA4 in cells of Ctla4 m/m (WT) mice (mouse) (UniProt P09793); assay: cell-based or functional assay
[10] = target: mouse CTLA4-Fc fusion protein (mouse) (UniProt P09793); assay: blocking ELISA: plate B7-1, biotinylated mouse CTLA4-Fc with the antibody, HRP-streptavidin; blocked ligand B7-1
[11] = target: human CTLA4 in cells of Ctla4 h/h knock-in mice (human) (UniProt P16410); assay: flow cytometry, intracellular staining of CTLA4 in spleen cells of Ctla4 h/h mice, gated on CD3+CD4+
Chain of human CTLA4 in cells of Ctla4 h/h knock-in mice (human) (P16410 36-223): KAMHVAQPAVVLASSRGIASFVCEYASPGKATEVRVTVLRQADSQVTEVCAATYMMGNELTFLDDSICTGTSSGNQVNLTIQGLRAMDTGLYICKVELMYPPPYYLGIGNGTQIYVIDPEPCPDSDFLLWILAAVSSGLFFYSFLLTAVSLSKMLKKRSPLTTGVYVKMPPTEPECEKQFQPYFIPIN

[12] = target: mouse CTLA4-Fc fusion protein (mouse) (UniProt P09793); assay: blocking ELISA: plate B7-2, biotinylated mouse CTLA4-Fc with the antibody, HRP-streptavidin; blocked ligand B7-2
[13] = target: mouse CTLA4 in cells of Ctla4 m/m (WT) mice (mouse) (UniProt P09793); assay: flow cytometry, intracellular staining of CTLA4 in spleen cells of Ctla4 m/m mice, gated on CD3+CD4+

Chain of anti-mouse CTLA4 mAb 9D9 (antibody) (light): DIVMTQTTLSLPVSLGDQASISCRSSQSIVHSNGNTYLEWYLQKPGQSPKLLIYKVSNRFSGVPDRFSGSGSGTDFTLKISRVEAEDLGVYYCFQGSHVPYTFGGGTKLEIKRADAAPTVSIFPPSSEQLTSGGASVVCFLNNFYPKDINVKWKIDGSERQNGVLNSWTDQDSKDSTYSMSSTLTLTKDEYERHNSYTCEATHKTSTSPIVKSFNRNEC
Chain of anti-mouse CTLA4 mAb 9D9 (antibody) (heavy): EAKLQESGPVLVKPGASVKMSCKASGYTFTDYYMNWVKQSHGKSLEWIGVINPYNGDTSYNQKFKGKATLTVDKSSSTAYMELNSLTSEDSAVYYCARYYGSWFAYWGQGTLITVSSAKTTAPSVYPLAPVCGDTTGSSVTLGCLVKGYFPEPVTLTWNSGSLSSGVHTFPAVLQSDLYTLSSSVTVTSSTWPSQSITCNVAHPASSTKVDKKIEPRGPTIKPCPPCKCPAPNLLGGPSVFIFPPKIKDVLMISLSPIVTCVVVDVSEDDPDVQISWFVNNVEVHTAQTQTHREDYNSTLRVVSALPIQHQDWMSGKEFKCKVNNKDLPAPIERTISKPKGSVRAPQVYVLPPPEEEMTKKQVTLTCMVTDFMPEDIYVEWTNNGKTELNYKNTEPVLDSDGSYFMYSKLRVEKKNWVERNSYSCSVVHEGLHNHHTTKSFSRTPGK

OD450 [1]: 0.198 OD and 0.184 OD | OD450 [2]: 1.39 OD and 1.48 OD | OD450 [3]: 0.315 OD and 0.326 OD | OD450 [4]: 0.201 OD and 0.182 OD
Substance: chimeric L3D10 antibody

OD450 [5]: 0.884 OD450 and 1.04 OD450 | OD450 [6]: 3.05 OD450 and 3.16 OD450 | OD450 [7]: 0.22 OD450 and 0.217 OD450 | OD450 [8]: 0.174 OD450 and 0.163 OD450
Substance: human B7-1 Fc fusion protein (from UniProt P33681 35-242)

B7-1 level on CD11c hi DC of WT mice 24 h after 500 µg antibody [9]: 15%
Substance: anti-mouse CTLA4 mAb 9D9 (antibody)

IC50 (read off the curve) [10]: 1 µg/mL | number over the gate (FoxP3-positive, 4F10-stained) among CD3+CD4+ splenocytes [11]: 0.107 | IC50 (read off the curve) [12]: 0.3 µg/mL | number over the gate (FoxP3-positive, 4F10-stained) among CD3+CD4+ splenocytes [13]: 9.52
Substance: anti-mouse CTLA4 mAb 4F10 (antibody)
